The source of these data is PMC9569509, “Collagen Type XI Inhibits Lung Cancer-Associated Fibroblast Functions and Restrains the Integrin Binding Site Availability on Collagen Type I Matrix” (International Journal of Molecular Sciences, 2022).

In the experiment the target is bovine collagen type XI (bovine, UniProt Q28083 279-911; Q32S24 28-1736; P02459 182-1487, Triple helix of alpha1(XI), alpha2(XI) and alpha3(XI), the last being the COL2A1 product; hydroxyproline and glycosylated hydroxylysine. Purchased tissue collagen (Chondrex); limits not given, and t). Briefly: ELISA; solid phase assay: collagens (50 µg/mL) or fibronectin (10 µg/mL) immobilised on a 96-well plate; DDR2-Fc in 0.05 mg/mL κ-casein in PBS-T, 3 h at room temperature; detected by goat anti-human IgG (Fc specific)-HRP; Kd by Scatchard plot. As to conditions: both partners purified.
Chain of bovine collagen type XI (Q28083 279-911, chain 1 of 3): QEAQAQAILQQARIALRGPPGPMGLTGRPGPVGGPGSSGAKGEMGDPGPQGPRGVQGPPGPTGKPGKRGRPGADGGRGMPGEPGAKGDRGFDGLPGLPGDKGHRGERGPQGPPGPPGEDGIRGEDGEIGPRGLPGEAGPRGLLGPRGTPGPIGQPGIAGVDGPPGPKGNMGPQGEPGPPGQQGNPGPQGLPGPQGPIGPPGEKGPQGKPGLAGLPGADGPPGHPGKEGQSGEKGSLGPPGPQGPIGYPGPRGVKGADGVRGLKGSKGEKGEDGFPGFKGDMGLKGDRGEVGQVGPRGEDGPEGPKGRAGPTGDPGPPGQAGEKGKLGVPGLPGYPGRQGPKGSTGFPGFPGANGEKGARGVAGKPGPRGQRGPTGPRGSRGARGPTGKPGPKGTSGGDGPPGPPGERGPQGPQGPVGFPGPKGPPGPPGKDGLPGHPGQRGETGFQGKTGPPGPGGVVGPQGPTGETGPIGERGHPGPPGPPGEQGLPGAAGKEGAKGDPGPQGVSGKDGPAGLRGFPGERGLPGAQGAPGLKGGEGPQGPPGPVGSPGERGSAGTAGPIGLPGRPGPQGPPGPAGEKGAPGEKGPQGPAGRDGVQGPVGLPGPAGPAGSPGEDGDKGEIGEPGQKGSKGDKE
Chain of bovine collagen type XI (Q32S24 28-1736, chain 2 of 3): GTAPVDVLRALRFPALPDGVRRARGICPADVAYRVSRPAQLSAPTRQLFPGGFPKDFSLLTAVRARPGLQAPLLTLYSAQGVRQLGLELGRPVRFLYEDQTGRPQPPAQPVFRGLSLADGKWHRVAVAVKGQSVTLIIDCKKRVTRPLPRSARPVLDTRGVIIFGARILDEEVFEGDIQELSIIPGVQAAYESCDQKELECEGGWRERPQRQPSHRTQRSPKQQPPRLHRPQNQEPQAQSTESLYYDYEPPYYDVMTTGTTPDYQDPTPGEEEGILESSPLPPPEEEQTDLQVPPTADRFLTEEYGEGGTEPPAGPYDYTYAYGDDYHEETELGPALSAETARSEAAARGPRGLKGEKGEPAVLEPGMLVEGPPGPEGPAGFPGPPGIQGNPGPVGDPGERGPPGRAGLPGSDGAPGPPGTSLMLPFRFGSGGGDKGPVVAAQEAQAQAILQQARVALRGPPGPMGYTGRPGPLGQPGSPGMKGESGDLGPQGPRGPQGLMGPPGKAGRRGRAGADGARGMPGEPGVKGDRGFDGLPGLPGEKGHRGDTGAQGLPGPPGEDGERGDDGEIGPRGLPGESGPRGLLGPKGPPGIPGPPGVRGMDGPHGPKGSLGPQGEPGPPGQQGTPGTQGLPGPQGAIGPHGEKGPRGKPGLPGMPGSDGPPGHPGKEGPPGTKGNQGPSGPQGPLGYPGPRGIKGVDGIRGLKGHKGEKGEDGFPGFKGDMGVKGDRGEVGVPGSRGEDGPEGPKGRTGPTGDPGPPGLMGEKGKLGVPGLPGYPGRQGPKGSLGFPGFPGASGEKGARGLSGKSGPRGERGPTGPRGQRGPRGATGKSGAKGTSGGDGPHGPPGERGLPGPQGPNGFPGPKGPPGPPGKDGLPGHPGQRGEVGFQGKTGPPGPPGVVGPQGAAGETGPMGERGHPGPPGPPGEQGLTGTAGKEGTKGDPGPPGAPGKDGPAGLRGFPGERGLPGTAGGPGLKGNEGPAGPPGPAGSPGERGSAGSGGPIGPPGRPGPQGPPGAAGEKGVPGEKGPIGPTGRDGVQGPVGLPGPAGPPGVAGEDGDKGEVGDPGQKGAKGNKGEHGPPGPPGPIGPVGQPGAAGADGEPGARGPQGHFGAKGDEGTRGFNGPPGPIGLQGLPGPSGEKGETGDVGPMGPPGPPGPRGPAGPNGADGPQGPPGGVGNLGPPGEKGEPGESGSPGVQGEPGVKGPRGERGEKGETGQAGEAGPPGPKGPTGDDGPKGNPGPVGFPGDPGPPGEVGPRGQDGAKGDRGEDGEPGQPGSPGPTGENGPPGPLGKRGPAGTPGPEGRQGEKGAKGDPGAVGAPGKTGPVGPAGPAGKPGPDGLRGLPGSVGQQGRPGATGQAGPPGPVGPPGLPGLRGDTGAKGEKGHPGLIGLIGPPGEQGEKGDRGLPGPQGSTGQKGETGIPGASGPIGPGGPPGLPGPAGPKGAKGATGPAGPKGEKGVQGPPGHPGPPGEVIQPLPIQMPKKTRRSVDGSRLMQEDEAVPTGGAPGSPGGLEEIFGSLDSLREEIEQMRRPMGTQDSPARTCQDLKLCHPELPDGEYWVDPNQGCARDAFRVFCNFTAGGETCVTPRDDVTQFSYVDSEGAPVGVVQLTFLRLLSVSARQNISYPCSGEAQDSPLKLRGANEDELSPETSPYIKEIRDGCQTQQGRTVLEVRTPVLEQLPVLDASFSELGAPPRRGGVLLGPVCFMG
Chain of bovine collagen type XI (P02459 182-1487, chain 3 of 3): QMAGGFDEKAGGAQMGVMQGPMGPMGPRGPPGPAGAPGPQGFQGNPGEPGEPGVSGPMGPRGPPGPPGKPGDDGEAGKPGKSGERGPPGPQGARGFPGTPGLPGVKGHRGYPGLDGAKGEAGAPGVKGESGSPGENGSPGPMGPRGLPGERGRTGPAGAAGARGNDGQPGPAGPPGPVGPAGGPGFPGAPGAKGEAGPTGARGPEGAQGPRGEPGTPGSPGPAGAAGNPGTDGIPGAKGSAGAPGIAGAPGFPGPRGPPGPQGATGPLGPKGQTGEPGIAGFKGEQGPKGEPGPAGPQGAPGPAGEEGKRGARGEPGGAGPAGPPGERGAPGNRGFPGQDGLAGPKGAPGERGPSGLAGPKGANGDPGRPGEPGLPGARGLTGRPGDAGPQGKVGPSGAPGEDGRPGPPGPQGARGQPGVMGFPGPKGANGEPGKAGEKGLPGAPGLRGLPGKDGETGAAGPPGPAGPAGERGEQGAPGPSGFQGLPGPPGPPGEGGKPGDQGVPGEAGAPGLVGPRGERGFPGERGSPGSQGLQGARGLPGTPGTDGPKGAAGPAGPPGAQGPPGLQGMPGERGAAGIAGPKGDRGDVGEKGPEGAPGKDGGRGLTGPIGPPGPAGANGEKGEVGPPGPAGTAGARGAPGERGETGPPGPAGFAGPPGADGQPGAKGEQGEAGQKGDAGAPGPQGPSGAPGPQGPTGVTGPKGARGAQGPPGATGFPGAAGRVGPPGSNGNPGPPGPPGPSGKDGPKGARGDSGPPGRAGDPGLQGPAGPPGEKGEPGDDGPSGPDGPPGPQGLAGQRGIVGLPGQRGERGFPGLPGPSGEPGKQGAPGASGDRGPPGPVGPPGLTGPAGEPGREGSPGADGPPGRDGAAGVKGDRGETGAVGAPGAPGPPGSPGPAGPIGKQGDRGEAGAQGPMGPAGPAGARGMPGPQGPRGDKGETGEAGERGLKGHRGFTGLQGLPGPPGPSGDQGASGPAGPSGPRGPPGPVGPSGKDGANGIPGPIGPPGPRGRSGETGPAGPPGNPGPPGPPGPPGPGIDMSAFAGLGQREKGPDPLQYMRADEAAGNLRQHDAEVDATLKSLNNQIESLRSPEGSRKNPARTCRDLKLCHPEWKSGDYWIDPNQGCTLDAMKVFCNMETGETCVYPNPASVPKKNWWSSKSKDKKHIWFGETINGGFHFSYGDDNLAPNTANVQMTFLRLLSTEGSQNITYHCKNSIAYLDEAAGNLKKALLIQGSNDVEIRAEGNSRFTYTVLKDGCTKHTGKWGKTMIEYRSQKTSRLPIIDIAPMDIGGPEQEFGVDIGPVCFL

B1: Recombinant human DDR2-Fc chimera protein (Fc fusion, UniProt Q16832 22-399, looked up)
chain: KAQVNPAICRYPLGMSGGQIPDEDITASSQWSESTAAKYGRLDSEEGDGAWCPEIPVEPDDLKEFLQIDLHTLHFITLVGTQGRHAGGHGIEFAPMYKINYSRDGTRWISWRNRHGKQVLDGNSNPYDIFLKDLEPPIVARFVRFIPVTDHSMNVCMRVELYGCVWLDGLVSYNAPAGQQFVLPGGSIIYLNDSVYDGAVGYSMTEGLGQLTDGVSGLDDFTQTHEYHVWPGYDYVGWRNESATNGYIEIMFEFDRIRNFTTMKVHCNNMFAKGVKIFKEVQCYFRSEASEWEPNAISFPLVLDDVNPSARFVTVPLHHRMASAIKCQYHFADTWMMFSEITFQSDAAMYNNSEALPTSPMAPTTYDPMLKVDDSNTR
notes: discoidin domain receptor 2, human; No catalogue number printed; Probably the extracellular domain of DDR2 joined to a human IgG Fc; Detected by goat anti-human IgG (Fc specific)-HRP; source: bought: Sino Biological
One may read the Kd as the concentration at which binding is half-saturated. For B1, the dissociation constant (Kd) fell in the range of 2 to 5 nM.
